5 molecules from article PMC8287922 can be followed below.

Targets include Pax7 PD (mouse (Mus musculus), UniProt P47239 35-158); Pax7 PD-L (mouse (Mus musculus), UniProt P47239 35-215); Pax7 HD (mouse (Mus musculus), UniProt P47239 215-273); Pax7 PD-HD homodimer (mouse (Mus musculus), UniProt P47239 35-273).
Common to all, as to test: EMSA
Series [1] concerns the target T1, Pax7 PD-HD (mouse (Mus musculus), UniProt P47239 35-273).
The target in series [2] is T1, Pax7 PD-HD. The source holds these as a separate data set.
The target of series [3] is T1, Pax7 PD-HD. This is another data set of the same source.
Series [4] deals with T1, Pax7 PD-HD. This is another data set of the same source.

Residue numbers refer to the chain shown, from its start. Read-outs that look alike come from different tables or passages of the source.

Chain of Pax7 HD (P47239 215-273): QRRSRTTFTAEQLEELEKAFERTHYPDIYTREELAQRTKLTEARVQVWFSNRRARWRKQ
T1 sequence (P47239 35-273): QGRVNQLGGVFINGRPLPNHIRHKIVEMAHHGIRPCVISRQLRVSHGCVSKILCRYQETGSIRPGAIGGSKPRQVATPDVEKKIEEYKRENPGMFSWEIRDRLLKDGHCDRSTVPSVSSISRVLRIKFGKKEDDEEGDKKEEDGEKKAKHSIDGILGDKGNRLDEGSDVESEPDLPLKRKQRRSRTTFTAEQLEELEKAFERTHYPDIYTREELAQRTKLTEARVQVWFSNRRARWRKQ
Chain of Pax7 PD (P47239 35-158): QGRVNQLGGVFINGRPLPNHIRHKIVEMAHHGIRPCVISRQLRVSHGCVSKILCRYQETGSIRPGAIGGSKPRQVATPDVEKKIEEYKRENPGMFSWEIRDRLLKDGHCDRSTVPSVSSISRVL
Chain of Pax7 PD-L (P47239 35-215): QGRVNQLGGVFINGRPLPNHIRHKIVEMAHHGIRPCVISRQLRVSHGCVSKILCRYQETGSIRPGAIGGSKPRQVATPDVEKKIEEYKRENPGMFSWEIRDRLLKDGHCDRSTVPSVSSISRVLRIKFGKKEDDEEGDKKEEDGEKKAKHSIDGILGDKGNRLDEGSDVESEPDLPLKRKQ
Chain of Pax7 PD-HD homodimer (P47239 35-273): as the sequence (P47239 35-273) above

B1: PD (mutated HD) (dsDNA)
DNA 1: TCGACGCAGATCCGTGACGCCAGTTCCGACCTCGA
DNA 2: TCGAGGTCGGAACTGGCGTCACGGATCTGCGTCGA
Regarding B1, the binding result in the series with Pax7 PD-HD [1], in the series with Pax7 PD and in the series with Pax7 PD-L was “binds” each time.

B2: Composite HP.E0 (dsDNA)
DNA 1: B1 DNA 1 with G19T, C20A, C21A, A22T
DNA 2: B1 DNA 2 with T14A, G15T, G16T, C17A
Take B2: the binding result with Pax7 PD-HD [2] and in the series with Pax7 PD was “binds” in each case.

B3: H.I2 (dsDNA)
DNA 1: TCGACTCGTCCGCTAATTGATTATCCAACGACCTCGA
DNA 2: TCGAGGTCGTTGGATAATCAATTAGCGGACGAGTCGA
Consider B3, for which the binding result with Pax7 HD, with Pax7 PD-HD [3] and in the series with Pax7 PD-HD homodimer was “binds” throughout.

B4: HD (mutated PD) (dsDNA)
DNA 1: TCGACGCAGATCGTCCGCTAATTCCAACGACCTCGA
DNA 2: TCGAGGTCGTTGGAATTAGCGGACGATCTGCGTCGA
With B4, the binding result with Pax7 HD was “no binding”.

B5: H.I-2 (dsDNA)
DNA 1: TCGACCAGATCGTCCGCTAATTACCAACGACCTCGA
DNA 2: TCGAGGTCGTTGGTAATTAGCGGACGATCTGGTCGA
Turning to B5, the binding result in the series with Pax7 HD is “no binding”; with Pax7 PD-HD [4] it was “binds”.
